From patent publication US9637543B2, “HER3 antibodies and uses thereof” (THE UAB RESEARCH FOUNDATION, priority 2011, dated 2017)
“Also recorded” adds a separate entry of the source.

Columns and labels:
HER3 [1] = target: T1, HER3 (Homo sapiens, UniProt P21860); assay: HER3 autophosphorylation in pancreatic cancer cell lines; type: cell-based; design: endogenous in cells; host or cells: N87, BT474, ZR75-30, Panc 2.03, A549 and a panel of human cancer cell lines; conditions: single agents
HER2 [2] = target: T2, HER2 (Homo sapiens, UniProt P04626); assay: HER2 autophosphorylation in pancreatic cancer cell lines; type: cell-based; design: endogenous in cells; conditions: single agents
HER2 [3] = target: T2, HER2; assay: NRG1-induced phosphorylation of HER2 in pancreatic cancer cell lines; type: cell-based; design: endogenous in cells
[4] = system: N87 human gastric cancer xenograft; assay: N87 human gastric cancer xenograft model; type: in vivo; conditions: lapatinib alone versus antibodies alone
HER3 [5] = target: T1, HER3; assay: NRG1-induced phosphorylation of HER3 in pancreatic cancer cell lines; type: cell-based; design: endogenous in cells; host or cells: N87, BT474, ZR75-30, Panc 2.03, A549 and a panel of human cancer cell lines
HER2 [6] = target: T2, HER2; assay: HER2 tyrosine phosphorylation ELISA, antibodies with or without lapatinib; type: cell-based; design: endogenous in cells; host or cells: N87 gastric cancer cells; ZR75-30 breast cancer cells; conditions: 24 hours; for tyrosine phosphorylation level of HER2: N87 cells; for tyrosine phosphorylation levels of HER2: ZR75-30 cells
HER3 [7] = target: T1, HER3; assay: Functional screen for inhibition of ligand-induced HER3 activation; type: cell-based; design: endogenous in cells; host or cells: N87, BT474, ZR75-30, Panc 2.03, A549 and a panel of human cancer cell lines; conditions: human cancer cell lines
From the text: Another HER3 antibody was generated by immunizing mice with human HER3 expressing SP 2/0 cells. […] Thus, the 3D4 antibody is a ligand-dependent antibody.

[8] = target: T3, HER3-transfected SP 2/0 cells (Homo sapiens, UniProt P21860); assay: Flow cytometry for blocking of NRG1 binding to HER3; conditions: 100 ng/ml biotin-conjugated NRG1, increasing antibody concentrations
T3 construct: expressed in transfected cells; host or cells: SP 2/0 cells
T3 sequence (P21860 20-1342): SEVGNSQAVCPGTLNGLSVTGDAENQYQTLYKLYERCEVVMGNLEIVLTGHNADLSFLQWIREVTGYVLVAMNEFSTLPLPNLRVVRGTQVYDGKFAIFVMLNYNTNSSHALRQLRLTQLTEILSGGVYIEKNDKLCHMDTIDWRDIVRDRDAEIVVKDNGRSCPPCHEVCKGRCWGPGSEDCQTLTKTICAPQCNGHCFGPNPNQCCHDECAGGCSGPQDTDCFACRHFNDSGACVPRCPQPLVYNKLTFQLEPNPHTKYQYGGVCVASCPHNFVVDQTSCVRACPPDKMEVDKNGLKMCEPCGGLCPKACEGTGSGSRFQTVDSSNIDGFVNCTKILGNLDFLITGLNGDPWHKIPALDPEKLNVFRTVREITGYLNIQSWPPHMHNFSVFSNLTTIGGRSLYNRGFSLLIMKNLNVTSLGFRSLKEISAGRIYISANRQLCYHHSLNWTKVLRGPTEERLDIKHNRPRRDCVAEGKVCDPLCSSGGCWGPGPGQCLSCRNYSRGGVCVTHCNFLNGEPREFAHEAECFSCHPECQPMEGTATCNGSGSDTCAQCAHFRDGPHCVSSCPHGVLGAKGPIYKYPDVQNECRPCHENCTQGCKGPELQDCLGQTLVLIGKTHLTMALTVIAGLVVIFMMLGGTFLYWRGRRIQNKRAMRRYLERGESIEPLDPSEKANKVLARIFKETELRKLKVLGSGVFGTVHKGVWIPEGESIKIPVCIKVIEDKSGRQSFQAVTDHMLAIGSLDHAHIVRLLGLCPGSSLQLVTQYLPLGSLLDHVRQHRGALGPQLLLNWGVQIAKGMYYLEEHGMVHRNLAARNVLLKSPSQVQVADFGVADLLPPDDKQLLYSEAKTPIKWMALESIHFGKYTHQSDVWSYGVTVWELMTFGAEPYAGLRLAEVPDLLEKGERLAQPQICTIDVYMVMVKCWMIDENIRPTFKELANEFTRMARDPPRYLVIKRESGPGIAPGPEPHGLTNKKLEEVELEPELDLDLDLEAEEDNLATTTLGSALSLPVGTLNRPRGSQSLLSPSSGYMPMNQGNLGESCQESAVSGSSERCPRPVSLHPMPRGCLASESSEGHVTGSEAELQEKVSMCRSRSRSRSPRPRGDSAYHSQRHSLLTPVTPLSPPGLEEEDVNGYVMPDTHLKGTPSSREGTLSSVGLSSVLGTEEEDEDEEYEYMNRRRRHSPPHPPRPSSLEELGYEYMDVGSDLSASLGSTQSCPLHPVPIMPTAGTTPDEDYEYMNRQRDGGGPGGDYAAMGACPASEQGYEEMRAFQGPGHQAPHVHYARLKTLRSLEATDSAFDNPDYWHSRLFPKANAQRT
From the text: (§1) The binding of NRG1 to HER3 (vertical axis) was detected by HRP-streptavidin. […] NRG1 binding was detected by PE-streptavidin. The mean fluorescent intensities (MFI) of NRG1 bound are presented.
(§2) The binding of NRG1 to HER3 was detected by HRP-streptavidin. […] Thus, the 1A5 antibody is herein referred to as a ligand-independent antibody. […] Thus, the 3D4 antibody is herein referred to as a ligand-dependent antibody. […] NRG1 binding was detected by PE-streptavidin.

recombinant soluble HER3 [9] = target: T4, recombinant soluble HER3 (Homo sapiens, UniProt P21860); assay: Sandwich ELISA for epitopes (1A5 capture, HRP-3D4 detection); type: binding; conditions: plate coated with 2 μg/ml 1A5, 200 ng/ml HRP-conjugated 3D4
T4 construct: coated with 1 μg/ml of recombinant soluble HER3
T4 sequence (P21860 20-643 limits assumed): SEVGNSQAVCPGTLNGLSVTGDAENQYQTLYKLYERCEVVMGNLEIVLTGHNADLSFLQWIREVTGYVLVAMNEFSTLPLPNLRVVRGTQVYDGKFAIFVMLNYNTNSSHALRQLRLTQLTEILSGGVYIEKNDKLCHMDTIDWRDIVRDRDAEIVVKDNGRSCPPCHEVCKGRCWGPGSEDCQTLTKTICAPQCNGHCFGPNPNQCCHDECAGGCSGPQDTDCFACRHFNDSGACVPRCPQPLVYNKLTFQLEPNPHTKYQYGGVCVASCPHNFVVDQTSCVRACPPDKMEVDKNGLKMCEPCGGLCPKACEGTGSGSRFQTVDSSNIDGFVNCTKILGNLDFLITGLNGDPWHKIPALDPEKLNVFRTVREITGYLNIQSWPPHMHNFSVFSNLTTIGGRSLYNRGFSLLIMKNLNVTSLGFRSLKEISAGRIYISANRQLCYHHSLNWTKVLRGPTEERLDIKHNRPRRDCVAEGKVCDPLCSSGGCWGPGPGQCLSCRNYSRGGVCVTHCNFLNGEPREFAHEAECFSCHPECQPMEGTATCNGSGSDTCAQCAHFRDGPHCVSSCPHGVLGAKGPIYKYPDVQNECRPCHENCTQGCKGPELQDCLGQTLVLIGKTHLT
Method: An ELISA plate was coated with 2 μg/ml of purified 1A5 and then incubated with indicated concentrations of recombinant soluble HER3 in the presence of 200 ng/ml HRP-conjugated 3D4. The binding of 3D4 to HER3 was detected by chemiluminescence substrate. The average counts per second of triplicates are presented.
An ELISA plate was coated with 2 μg/ml of purified 1A5 and then incubated with increasing concentrations of HER3 in the presence of 200 ng/ml HRP-conjugated 3D4. The binding of 3D4 antibody to HER3 was detected by chemiluminescence.

recombinant soluble HER3 [10] = target: T4, recombinant soluble HER3; assay: ELISA for blocking of NRG1 binding to HER3; conditions: 100 ng/ml biotin-conjugated NRG1, increasing antibody concentrations
From the text: as §1, §2

HER3 [11] = target: T1, HER3; assay: HER3 tyrosine phosphorylation ELISA, antibodies with or without tyrosine kinase inhibitor; type: cell-based; design: endogenous in cells; host or cells: N87; tyrosine phosphorylation of HER3: dose or concentration left out as unconfirmed; conditions: 24 hours; for tyrosine phosphorylation levels of HER3: 20 μg/ml antibody
[12] = system: A549 human lung cancer xenograft; assay: A549 human lung cancer xenograft model; type: in vivo
[13] = target: T5, HER3 (extracellular domain) (Homo sapiens, UniProt P21860); assay: ELISA binding specificity on recombinant soluble EGFR, HER2, HER3; conditions: plate coated with 1 μg/ml recombinant soluble EGFR, HER2 or HER3 extracellular domain
T5 construct: recombinant soluble EGFR, HER2, or the extracellular domain of HER3
T5 sequence (P21860 20-643 limits assumed): as above
Method: (§3) The average OD values of triplicates are presented. The values for egFR are superimposed on the values for HER2. […] EGFR, HER2 or HER3-transfected SP 2/0 cells were stained with 1 μg/ml of purified antibody, followed by PE-goat anti-mouse IgG.
(§4) An ELISA plate was coated with 1 μg/ml of recombinant soluble EGFR, HER2, or the extracellular domain of HER3.

[14] = target: T3, HER3-transfected SP 2/0 cells; assay: Flow cytometry binding specificity on transfected SP 2/0 cells; conditions: EGFR, HER2 or HER3 transfected SP2/0 cells, 1 μg/ml purified antibody
Method: as §3, §4

EGFR = EGFR (Homo sapiens, UniProt P00533); assay: EGFR tyrosine phosphorylation ELISA, antibodies with or without tyrosine kinase inhibitor; conditions: 24 hours

T1 sequence (P21860 20-1342): as the sequence (P21860 20-1342) above

Molecule: C#Cc1cccc(Nc2ncnc3cc(OCCOC)c(OCCOC)cc23)c1 [erlotinib, reference compound]
- autophosphorylation of HER3 (HER3 [1]): but not erlotinib and lapatinib inhibited autophosphorylation of HER3

Molecule: CS(=O)(=O)CCNCc1ccc(-c2ccc3ncnc(Nc4ccc(OCc5cccc(F)c5)c(Cl)c4)c3c2)o1 [lapatinib, reference compound]
- autophosphorylation of HER2 (HER2 [2]): partially inhibited autophosphorylation of HER2
- autophosphorylation of HER3 (HER3 [1]): but not erlotinib and lapatinib inhibited autophosphorylation of HER3
- NRG1-induced phosphorylation of HER2 (HER2 [3]): inhibited NRG1-induced phosphorylation of HER2; also recorded: inhibited NRG-1-induced phosphorylation of HER2
- tumor volume [4]: reduced tumor volume more than the administration of the combination of 1A5 and 3D4 antibodies
- NRG1-induced phosphorylation of HER3 (HER3 [5]): only partially inhibited NRG1-induced phosphorylation of HER3; also recorded: partially reduced NRG-1-induced phosphorylation
- tyrosine phosphorylation level of HER2 (HER2 [6]; 100 nM lapatinib with the antibodies): reduced
- tyrosine phosphorylation levels of HER2 (HER2 [6]; 100 nM lapatinib with the antibodies alone or in combination): reduced tyrosine phosphorylation levels

B1: 3D4: ligand-dependent HER3 antibody; light chain variable region SEQ ID NO:9, heavy chain variable region SEQ ID NO:10 (antibody, V domains shown)
VH: MGWSRIFLFLLSIIAGVHCQVQLQQSGPELVKPGASVRISCKASGYTFTNYFLHWMKQRPGQGLEWIGWIYPGNVNTKYSEKFKGKATLTADKSSSTAYMQLSSLTSEDSAVYFCARSTYYSMDYWGQGTSVTVSS
VL: METDTLLLWVLLLWVPGSTGDIVLTQSPASLAVSLGQRATISCRASESVDSYGNSFMNWYQQKPGQPPKVLIYRASNLESGIPARFSGSGSRTDFTLTITPVEADDVATYYCQQSYEDPPTFGGGTKLEIK
- inhibition of ligand-induced HER3 activation (HER3 [7]): ability to inhibit ligand-induced HER3 activation in human cancer cells lines
- blocking of NRG1 binding to HER3 (flow cytometry) [8]: blocked NRG1 binding to HER3; also recorded: blocks ligand binding to HER2
- epitopes of HER3 bound (recombinant soluble HER3 [9]): bind different epitopes of HER3; also recorded: recognize different epitopes on HER3
- blocking of NRG1 binding to HER3 (ELISA) (recombinant soluble HER3 [10]): inhibited binding of NRG1 to HER3; also recorded: blocks ligand binding to HER3
- NRG1-induced phosphorylation of HER2 (HER2 [3]): inhibited NRG1-induced phosphorylation of HER2; also recorded: inhibited NRG-1-induced phosphorylation of HER2
- tyrosine phosphorylation levels of HER3, effect of adding Erlotinib (HER3 [11]; A549 cells, 20 μg/ml antibody with 100 nM Erlotinib): enhanced
- tyrosine phosphorylation levels of HER3 (HER3 [11]; A549 cells, without Erlotinib): reduced the tyrosine-phosphorylation levels of HER3
- tyrosine phosphorylation of HER3 (HER3 [11]; N87 cells, without lapatinib): reduced the tyrosine phosphorylation of HER3
- tyrosine phosphorylation of HER3, effect of adding lapatinib (HER3 [11]; N87 cells, with 100 nM lapatinib): enhanced
- tyrosine phosphorylation levels of HER3, effect of adding lapatinib (HER3 [11]; ZR75-30 cells, 20 μg/ml antibody with 100 nM lapatinib): enhanced
- tyrosine phosphorylation levels of HER3 (HER3 [11]; ZR75-30 cells, without lapatinib): reduced the tyrosine phosphorylation levels of HER3
- tumor volume ([12]; antibodies without Erbitux): reduced tumor volume
- tumor volume ([12]; in combination with Erbitux): reduced tumor volume more than administration of Erbitux alone
- binding specificity by ELISA [13]: specifically bind HER3; also recorded: specific binding
- binding specificity by flow cytometry [14]: specifically bind HER3
- tyrosine phosphorylation levels of EGFR (EGFR; A549 cells, 20 μg/ml antibody, without Erlotinib): did not affect tyrosine phosphorylation levels of EGFR
- tyrosine phosphorylation level of EGFR (EGFR; N87 cells, 20 mg/ml antibody, without lapatinib): did not affect the level of tyrosine phosphorylation for EGFR or HER2
- NRG1-induced phosphorylation of HER3 (HER3 [5]): inhibited NRG1-induced phosphorylation of HER3; also recorded: inhibited NRG-1 induced phosphorylation of HER3
- tyrosine phosphorylation level of HER2 (HER2 [6]; without lapatinib): did not affect the level of tyrosine phosphorylation for EGFR or HER2
- tyrosine phosphorylation levels of HER2 (HER2 [6]; 20 μg/ml antibody, without lapatinib): did not affect tyrosine phosphorylation levels of HER2
